Consider one molecule from article PMC3824023.

The assay has as its target microtubules polymerised from bovine brain tubulin (bovine) (UniProt Q6B856).
Sequence of UniProt Q6B856 (Q6B856 whole entry, looked up): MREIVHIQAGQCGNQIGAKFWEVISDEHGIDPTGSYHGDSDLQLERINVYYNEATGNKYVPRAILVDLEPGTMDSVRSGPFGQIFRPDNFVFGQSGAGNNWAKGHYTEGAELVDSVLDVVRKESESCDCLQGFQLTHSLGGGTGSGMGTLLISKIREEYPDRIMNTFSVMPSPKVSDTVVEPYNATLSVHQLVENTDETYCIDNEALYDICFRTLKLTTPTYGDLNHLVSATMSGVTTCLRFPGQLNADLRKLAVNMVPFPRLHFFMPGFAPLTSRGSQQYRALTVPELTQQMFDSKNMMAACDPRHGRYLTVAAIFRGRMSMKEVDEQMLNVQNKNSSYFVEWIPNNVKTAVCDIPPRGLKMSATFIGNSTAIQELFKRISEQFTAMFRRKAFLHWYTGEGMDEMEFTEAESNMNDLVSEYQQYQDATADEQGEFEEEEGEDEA

B1: KIF17M-490 (C-terminally truncated KIF17, amino acids 1-490: motor, neck and first coiled-coil domains) (domain or fragment)
chain: MASEAVKVVVRCRPMNQRERELRCQPVVTVDCARAQCCIQNPGAADEPPKQFTFDGAYHVDHVTEQIYNEIAYPLVEGVTEGYNGTIFAYGQTGSGKSFTMQGLPDPPSQRGIIPRAFEHVFESVQCAENTKFLVRASYLEIYNEDVRDLLGADTKQKLELKEHPEKGVYVKGLSMHTVHSVAQCEHIMETGWKNRSVGYTLMNKDSSRSHSIFTISIEMSAVDERGKDHLRAGKLNLVDLAGSERQSKTGATGERLKEATKINLSLSALGNVISALVDGRCKHVPYRDSKLTRLLQDSLGGNTKTLMVACLSPADNNYDETLSTLRYANRAKNIRNKPRINEDPKDALLREYQEEIKKLKAILTQQMSPSSLSALLSRQVPPDPVQVEEKLLPQPVIQHDVEAEKQLIREEYEERLARLKADYKAEQESRARLEEDITAMRNSYDVRLSTLEENLRKETEAVLQVGVLYKAEVMSRAEFASSAEYPPAF
For B1, the K (0.5, MT) of MT-stimulated ATPase, KIF17M-490 alone was 1.3 µM; the K (0.5, MT) of MT-stimulated ATPase, KIF17M-490 with EB1 (2x molar ratio) was 0.7 µM; the K (0.5, MT) of MT-stimulated ATPase, KIF17M-490 with equimolar KIF17-tail came to 0.4 µM.
